In assay [1] the target is T1, B7-H2 (UniProt O75144 19-256, limits assumed).
T1 sequence (looked up): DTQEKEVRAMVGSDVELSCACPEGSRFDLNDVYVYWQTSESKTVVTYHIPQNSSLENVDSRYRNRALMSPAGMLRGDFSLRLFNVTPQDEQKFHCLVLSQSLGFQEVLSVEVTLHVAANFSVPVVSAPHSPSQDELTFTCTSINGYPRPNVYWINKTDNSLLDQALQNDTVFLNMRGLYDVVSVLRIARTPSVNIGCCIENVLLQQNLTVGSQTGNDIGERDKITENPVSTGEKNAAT
Put plainly: indirect ELISA, B7-H2 coated at 1 ug/mL, absorbance at 450 nm. The protocol:
[The procedure below names another target; the source lists this target under the same test.] (§1) The binding ability of 2D IgG prepared in Example 2 for recombinant B7-H3 protein was investigated by indirect ELISA. For indirect ELISA, recombinant human 4lg B7-H3, recombinant human 2lg B7-H3 and recombinant mouse B7-H3 were diluted respectively to 1 μg/mL in 50 μL of PBS and adsorbed overnight onto a 96-well immunoplate (Corning, USA) by storing at 4° C. After reaction with a buffer solution containing 3% bovine serum albumin at room temperature for 1 hour, followed by washing 3 times with a buffer solution containing 0.5% Tween 20, each well was treated with 50 μL of the antibodies diluted serially (0.0001, 0.0003, 0.001, 0.003, 0.01, 0.03, 0.1, 0.3, 1, 3 and 10 nM). For antigen-antibody binding, the mixture was reacted at room temperature for 2 hours, and then washed 3 times with a buffer solution containing 0.5% Tween 20. After treating each well with 50 μL of anti-human immunoglobulin Fc-HRP antibodies (Jackson Immunoresearch, USA) diluted to 1:3,000, reaction was conducted at room temperature for 1 hour. […] As a result of measuring absorbance at 450 nm using a spectrophotometer (Biotek, USA), it was confirmed that 2D IgG binds to B7-H3, and the binding ability was in the order of 4lg B7-H3, 2lg B7-H3 and mouse B7-H3 (FIG. 2a). […]

Assay [2] addresses B7-H3 on human cancer cells (human) (UniProt Q5ZPR3). Put plainly: flow cytometry on SK-BR-3 breast cancer cells; control (secondary antibody only) < 5%. A general note: Flow cytometry measures light scatter and fluorescence of single cells or particles in a stream.
Assay [3] has the same target. Nature of the assay: flow cytometry on MDA-MB-231 breast cancer cells; control (secondary antibody only) < 5%.
For assay [4] the target is unchanged. Put plainly: flow cytometry on HT29 colorectal cancer cells; control (secondary antibody only) < 15%.
Assay [5] has the same target. Put plainly: flow cytometry on HCT116 colorectal cancer cells; control (secondary antibody only) < 25%.
The target of assay [6] is T2, B7-2 (UniProt P42081 24-247, limits assumed).
T2 sequence (looked up): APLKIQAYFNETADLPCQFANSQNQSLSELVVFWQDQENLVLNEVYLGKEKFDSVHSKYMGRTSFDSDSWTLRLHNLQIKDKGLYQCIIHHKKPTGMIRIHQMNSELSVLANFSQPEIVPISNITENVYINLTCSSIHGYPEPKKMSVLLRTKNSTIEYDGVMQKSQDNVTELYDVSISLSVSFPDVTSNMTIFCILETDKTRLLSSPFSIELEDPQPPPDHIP
Nature of the assay: indirect ELISA, B7-2 coated at 1 ug/mL, absorbance at 450 nm. The protocol:
[The procedure below names another target; the source lists this target under the same test.] as §1
In general terms: An ELISA detects its analyte on a solid surface through an enzyme-linked reagent.

Assay [7] concerns the target human 2Ig B7-H3 expressed on Raji cells (human) (UniProt Q5ZPR3). Nature of the assay: flow cytometry on Raji cells expressing 2Ig B7-H3; the vector control Raji cells show < 2%.
Assay [8] concerns the target B7-H3 on human cancer cells (human) (UniProt Q5ZPR3). Nature of the assay: flow cytometry on PC-3 prostate cancer cells; control (secondary antibody only) < 20%.
In assay [9] the target is T3, B7-1 (UniProt P33681 35-242).
T3 sequence (looked up): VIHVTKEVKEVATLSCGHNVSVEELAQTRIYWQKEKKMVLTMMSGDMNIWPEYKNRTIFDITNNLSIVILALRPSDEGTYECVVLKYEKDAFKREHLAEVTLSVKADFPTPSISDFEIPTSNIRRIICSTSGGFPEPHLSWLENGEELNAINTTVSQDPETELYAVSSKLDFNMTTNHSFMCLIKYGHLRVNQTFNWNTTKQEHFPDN
Put plainly: indirect ELISA, B7-1 coated at 1 ug/mL, absorbance at 450 nm. The protocol:
[The procedure below names another target; the source lists this target under the same test.] as §1

The target of assay [10] is T4, B7-DC (UniProt Q9BQ51 20-219, limits assumed).
T4 sequence (looked up): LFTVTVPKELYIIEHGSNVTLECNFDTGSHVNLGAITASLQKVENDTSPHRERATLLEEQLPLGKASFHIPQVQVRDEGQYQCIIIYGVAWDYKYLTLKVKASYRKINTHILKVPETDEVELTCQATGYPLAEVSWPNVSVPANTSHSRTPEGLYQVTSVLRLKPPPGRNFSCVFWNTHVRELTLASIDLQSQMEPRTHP
Nature of the assay: indirect ELISA, B7-DC coated at 1 ug/mL, absorbance at 450 nm. The procedure: [The procedure below names another target; the source lists this target under the same test.] as §1

Chain of human 2Ig B7-H3 expressed on Raji cells (human) (Q5ZPR3 other isoform, or with tags, fused parts or gaps, form in doubt): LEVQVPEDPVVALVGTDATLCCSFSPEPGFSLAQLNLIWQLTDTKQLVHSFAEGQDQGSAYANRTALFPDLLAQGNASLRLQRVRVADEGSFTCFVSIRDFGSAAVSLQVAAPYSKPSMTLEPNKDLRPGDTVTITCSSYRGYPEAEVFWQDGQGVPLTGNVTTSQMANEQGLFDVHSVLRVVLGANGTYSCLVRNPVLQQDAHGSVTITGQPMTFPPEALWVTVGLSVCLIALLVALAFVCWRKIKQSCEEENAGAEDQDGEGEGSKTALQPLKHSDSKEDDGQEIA

B1: G2D IgG (antibody, V domains shown)
VH: QVQLVESGGGLVQPGGSLRLSCSASGFDFSSYPMVWVRQAPGKGLEYVSSINSGGSWTGYGAAVKGRATISRDNSKNTLYLQMNSLRAEDTATYYCARAYGAATIDAWGQGTTVTVSS
VL: SYELTQPPSVSVSPGQTARITCSGGSIGYGWYQQKAPGQAPVTVIYYNDRRPSGIPERFSGSKSGTTNTLTISGVQAEDEADYYCGSADSSSTYTGIFGGGTKLTVL
notes: The back-substitutions (L46T, S66K, V71N in VL); also called humanized 2D; G2D antibody
For the molecule B1, the binding result in assay [1], in assay [6], in [9] and in assay [10] was “no binding (tested: 10 nM)” each time. In addition, the % of cells in the positive gate in assay [2] was > 35%; in [3], > 95%; in [4] it was > 95%; in assay [5] it was > 95%; in assay [8] it was > 95%. For the same molecule, in [7], the % of cells in the positive gate (P3) is > 40%.

Values taken from patent US20260201038A1 (CELLABMED, published 2026).
